# Source: US6602687B1, “DNA encoding human ciliary neurotrophic factor and method for producing the protein encoded thereby” (Regeneron Pharmaceuticals, Inc., priority 1989, dated 2003)
# B1: CNTF: ciliary neurotrophic factor; recombinant rat CNTF in Sections 10, 15, 17, purified rat sciatic nerve CNTF in Section 11; see endpoint conditions (protein, UniProt P20294 1-200, looked up)
# Ciliary neurotrophic factor: MAFAEQTPLTLHRRDLCSRSIWLARKIRSDLTALMESYVKHQGLNKNINLDSVDGVPVASTDRWSEMTEAERLQENLQAYRTFQGMLTKLLEDQRVHFTPTEGDFHQAIHTLMLQVSAFAYQLEELMVLLEQKIPENEADGMPATVGDGGLFEKKLWGLKVLQELSQWTVRSIHDLRVISSHQMGISALESHYGAKDKQM
# What was measured:
# [1] = system: E8 chick ciliary ganglion neurons; experiment: Survival of dissociated E8 chick ciliary ganglion neurons; type: cell-based; settings: saturating levels of recombinant human CNTF; 48 hr
# In short: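 In one protocol, dissociated E8 chick ciliary ganglion cells (2,000 per well, HEBM with 20% horse serum) were held 24 h at 37 °C, fixed, and surviving neurons counted by phase contrast. In another, trypsinized, pre-plating-enriched neurons on polyornithine-laminin (8,000-10,000 per dish, F14 with 5% horse serum) were scored as percentage process-bearing at 48 h, in triplicate.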
# [2] = system: Ventral spinal cord neurons; experiment: Choline acetyltransferase (CAT) activity in ventral spinal cord cultures; type: cell-based, rat
# Method: Sprague-Dawley rats (HSD or Zivic-Miller) were used for all experiments. Pregnant rats (E14) were sacrificed as described in 10.1.1.
# Spinal cords were removed aseptically from rat embryos as described in 10.1.2. The cord tissues were minced into small pieces and incubated in 0.1% trypsin (GIBCO) and 0.01% deoxyribonuclease type 1 (Sigma) at 37° C. for 20 minutes. Trypsin solution was then removed, rinsed and replaced with medium consisting of 45% Eagle's minimum essential medium (MEM), 45% Ham's nutrient mixture F12 (F12), 5% fetal calf serum (GIBCO), 5% horse serum (GIBCO) glutamine (2 mM), penicillin G (0.5 U/ml), and streptomycin (0.5 ug/ml). This was then mechanically dissociated twice by gentle trituration through a Pasteur pipet in the same medium, and the supernatants were pooled and filtered through a nylon filter (Nitex, Tetko; 40 um). Total cell number yielded was determined by hemocytometer counting in the presence of trypan blue. Dissociated ventral cells were then plated at a density of approximately 50,000 cells/cm^2 on dishes coated with poly-L-ornithine (10 ug/ml) and laminin (5 ug/ml). Treatments were given on the day of plating, except for delayed addition experiments in which treatments were given on days 2 or 6. Cultures were maintained at 37° C. in 95% air/5% CO2 atmosphere at nearly 100% relative humidity. Culture medium was changed every 3 to 4 days. A mitotic inhibitor, cytosine arabinoside (Ara C; 0.5 uM), was added on day 2 to reduce the number of nonneuronal cells. On day 7, cells were harvested for measurements of choline acetyltransferase (CAT; Fonnum, 1975 J. Neurochem. 24:407-409) and protein (Bradford, 1976, Annal. Biochem. 72:248-254) levels or fixed in 4% paraformaldehyde for NF assay (Doherty et al., 1984, J. Neurochem. 42:1116-1122) and immunocytochemistry. Some cultures were grown in defined medium consisting of 50% F12 and 50% MEM, glutamine (2 mM), insulin (5 ug/ml), transferrin (100 ug/ml), progesterone (20 nM), putrescine (10 uM), and sodium selenite (30 nM) (Bottenstein and Sato, 1979, PNAS 76:514-517). In these cultures sera-containing medium was replaced with defined medium on day 1.
# Cultures were harvested by lysing the cells in a 20 mM Tris-HCl (pH 8.6) solution containing 0.1% Triton X-100. Two microliters of the cell lysate was removed and assayed for CAT activity according to the micro-Fonnum procedure (Fonnum, 1975, J. Neurochem. 24:407-409). The final substrate composition consisted of 0.2 mM [1-^14C] Acetyl-CoA (NEN, 54.4 mCi/mmol), 300 mM NaCl, 8 mM choline bromide, 20 mM EDTA, and 0.1 mM neostigmine in 50 mM NaH2PO4 (pH 7.4) buffer. At these enzyme and substrate concentrations, the enzymatic reaction was linear for 90-120 minutes. The specificity of the induction for CAT was tested by the addition of a specific inhibitor of CAT activity, N-hydroxyethyl-4-(1-napthylvinyl) pyridium (HNP), during the assay (White and Cavallito, 1970, J. Neurochem. 17:1579-1589).
molecule,measurement,setting,value
B1,neurons surviving and elaborating long neurites,[1],60-70%
same,time after treatment at which increase in CAT activity was apparent,[2],3 days
same,effect on CAT activity with glia reduced to about 5% of total cells,"[2]; AraC 0.5 uM or serum-free medium, CNTF 10 ng/ml",remained unchanged
same,increase in CAT activity over the increase in number of cholinergic neurons,[2]; CNTF 10 ng/ml,1.6 fold
same,"increase in CAT activity, delayed addition at day 2","[2]; CNTF 10 ng/ml added on day 2, treated 7 further days",1.2 fold
same,"effect on CAT activity, delayed addition at day 6","[2]; CNTF 10 ng/ml added on day 6, treated 7 further days",can no longer influence CAT activity
same,increase in CAT activity,"[2]; CNTF 10 ng/ml, NGF 50 ng/ml, FGF 50 ng/ml at plating, after 7 days in culture",4.0 fold
same,CNTF concentration of maximal response in CAT activity,[2]; day 7,1 ng/mL
